Data from patent US11535650 (RA PHARMACEUTICALS, dated 2022).
Starred links: 1 amine or outer side, 2 acyl side, 3 side chain; linkers in the order of their positions; H or OH if unused. Positions of bridges follow the written chain, without caps; N, C: chain ends. Non-standard residues stand in square brackets, D forms with d. Primed or numbered codes have the meaning given here. No end group written: not given here. *: point of attachment. mXylyl(3) = bridging moiety between the two residues given in brackets; mXylyl(5) = bridging moiety between the two residues (meta-xylyl); Phe(3-CH2NH2) = O=C([C@H](Cc1cccc(CN[*:3])c1)N[*:1])[*:2]; mXylyl = bridging moiety between residues (mXylyl(i,j)); Trp(5-F) = N[C@@H](Cc1c[nH]c2ccc(F)cc12)C(=O)O; Trp(7-aza) = N[C@@H](Cc1c[nH]c2ncccc12)C(=O)O; mXylyl(4) = bridging moiety between residues; hPhe(3-Cl) = N[C@@H](CCc1cccc(Cl)c1)C(=O)O; ivDde = CC(C)CC(=C1C(=O)CC(C)(C)CC1=O)*; 2Nal = N[C@@H](Cc1ccc2ccccc2c1)C(=O)O; Phg(2-OMe) = COc1ccccc1[C@H](N)C(=O)O; hPhe = N[C@@H](CCc1ccccc1)C(=O)O; NMeD = CN[C@@H](CC(=O)O)C(=O)O; dChg = N[C@@H](C(=O)O)C1CCCCC1; Chg = N[C@H](C(=O)O)C1CCCCC1; Phg = N[C@H](C(=O)O)c1ccccc1; Tle = CC(C)(C)[C@H](N)C(=O)O; NMeS = CN[C@@H](CO)C(=O)O; Ac5c = NC1(C(=O)O)CCCC1; Nva = CCC[C@H](N)C(=O)O; Thp = NC1(C(=O)O)CCOCC1; Aib = CC(C)(N)C(=O)O

B1: R3192 (peptide)
peptide: Ac-KVERFD[NMeD][Tle]Y[Trp(7-aza)]EYP[Chg]K-NH2
modifications: lactam 1-6
SMILES: CC(=O)N[C@H]1CCCCNC(=O)C[C@@H](C(=O)N(C)[C@@H](CC(=O)O)C(=O)N[C@H](C(=O)N[C@@H](Cc2ccc(O)cc2)C(=O)N[C@@H](Cc2c[nH]c3ncccc23)C(=O)N[C@@H](CCC(=O)O)C(=O)N[C@@H](Cc2ccc(O)cc2)C(=O)N2CCC[C@H]2C(=O)N[C@H](C(=O)N[C@@H](CCCCN)C(N)=O)C2CCCCC2)C(C)(C)C)NC(=O)[C@H](Cc2ccccc2)NC(=O)[C@H](CCCNC(=N)N)NC(=O)[C@H](CCC(=O)O)NC(=O)[C@H](C(C)C)NC1=O

Key:
human C5 protein [1] = molecular target: T1, human C5 protein (human, UniProt P01031 19-673; P01031 678-1676); experiment: cell-based or functional assay
human C5 protein [2] = molecular target: T1, human C5 protein; experiment: cell-based or functional assay; remark: listed apart in the source
human C5 protein [3] = molecular target: T1, human C5 protein; experiment: competitive fluorescence polarization vs probe R3076, Exp 1
Experimental: (§1) Test articles listed in Table 7 were subsequently diluted in DMSO then assay buffer, comprising 10 2-fold dilutions and were then added to the assay plate in triplicate, rapidly. The assay plate was then incubated in the Paradigm (Molecular Devices, Sunnyvale, Calif.) plate reader for 60 minutes at 25° C.
(§2) After incubation for 60 minutes, the plate was read using the Paradigm FP protocol (Molecular Devices, Sunnyvale, Calif.) and raw polarization values were imported into Graphpad Prism.

human C5 protein [4] = molecular target: T1, human C5 protein; experiment: competitive fluorescence polarization vs probe R3076, Exp 2
Experimental: as §1, §2

human C5 protein [5] = molecular target: T1, human C5 protein; experiment: competitive fluorescence polarization vs probe R3076, average of two experiments
Experimental: as §1, §2

Binder | Avg. IC50, human hemolysis assay (complete human sera) (human C5 protein [1]) [nM] | Avg. IC50, hemolysis assay (C5 depleted sera + purified human C5) (human C5 protein [2]) [nM] | other results
Ac-[Nva]C[dChg]T[Trp(7-aza)]EY[NMeS]AC[Nva]-NH2 (linker 2-10 via mXylyl(4)) [R3093] | > 100000 |  | 
Ac-[Nva]C[Phg]TWEY[NMeS]AC[Nva]-NH2 (linker 2-10 via mXylyl(4)) [R3091] | 483 |  | 
Ac-CVERFCD[Tle]Y[Trp(7-aza)]EWP[Chg][Nva] (linker 1-6 via mXylyl(3)) [R3177] |  | 12 | 
Ac-CVERFCD[Tle]Y[Phe(3-CH2NH2)]EYP[Chg][Nva] (linker 1-6 via mXylyl(3)) [R3181] |  | 1500 | 
Ac-[Nva]C[Phg]T[Trp(7-aza)]EF[NMeS]AC[Nva]-NH2 (linker 2-10 via mXylyl(4)) [R3100] | 626 |  | 
Ac-KVERFD[NMeD][Tle]YWEYP[Chg]K(C16) (lactam 1-6) [R3195] |  | 62.5 | 
Ac-[Nva]C[Phg]T[Trp(5-F)]EY[NMeS]AC[Nva]-NH2 (linker 2-10 via mXylyl(5)) [R3088] | > 100000 |  | 
Ac-KVERFD[NMeD][Tle]YWEYP[Chg]K (lactam 1-6) [R3196] |  | 3 | 
Ac-CAERFCD[Tle]Y[Trp(7-aza)]EYP[Phg]K(C16) (linker 1-6 via mXylyl(3)) [R3189] |  | 81.5 | 
Ac-CVERFC[Ac5c][Tle]Y[Trp(7-aza)]EYP[Chg][Nva] (linker 1-6 via mXylyl(3)) [R3185] |  | 12.5 | 
VERFCDGYWEYPGV ([cyclo-thioalkyl(1,5)]V-E-R-F-C-D-Tbg-Y-azaTrp-E-Y-P-Chg-Nvl) [R3184] |  | 4 | 
Ac-[Nva]C[Phg]T[Trp(7-aza)]NY[NMeS]AC[Nva]-NH2 (linker 2-10 via mXylyl(4)) [R3099] | > 100000 |  | 
Ac-CVERFCD[Tle]Y[Trp(7-aza)]E[hPhe(3-Cl)]P[Chg][Nva] (linker 1-6 via mXylyl(3)) [R3179] |  | 83 | 
Ac-[Nva]C[Phg]T[Trp(7-aza)]EYSAC[Nva]-NH2 (linker 2-10 via mXylyl(5)) [R3084] | > 100000 |  | 
Ac-C[Phg]T[Trp(7-aza)]EY[NMeS]HC[Nva]P[Nva]-NH2 (linker 1-9 via mXylyl) [R3014] | 1420 |  | IC50 (human C5 protein [3]): 6060 nM; Ki (human C5 protein [3]): 1400 nM; IC50 (human C5 protein [4]): 7580 nM; Ki (human C5 protein [4]): 1580 nM; IC50 (human C5 protein [5]): 6820 nM; Ki (human C5 protein [5]): 1500 nM
Ac-[Nva]C[Phg][Aib][Trp(7-aza)]EY[NMeS]HC[Nva]-NH2 (linker 2-10 via mXylyl(3)) [R3096] | > 50000 |  | 
Ac-[Nva]SYEC[Tle]Y[Trp(7-aza)]EYP[Chg]C[Nva]-NH2 (linker 5-13 via mXylyl(5)) [R3086] | > 50000 |  | 

Binder | Avg. IC50, human hemolysis assay (complete human sera) (human C5 protein [1]) [nM] | Avg. IC50, hemolysis assay (C5 depleted sera + purified human C5) (human C5 protein [2]) [nM] | other results
Ac-VC[Phg]T[Trp(7-aza)]EY[NMeS]AC[Nva]-NH2 (linker 2-10 via mXylyl(5)) [R3083] | > 25000 |  | 
Ac-KVERFD[NMeD][Tle]Y[Trp(7-aza)]EYP[Chg]K(C16)-NH2 (lactam 1-6) [R3194] |  | 15.5 | 
Ac-[Nva]C[Phg]T[Trp(7-aza)]EY[NMeS]C[Nva]-NH2 (linker 2-9 via mXylyl(5)) [R3080] | > 50000 |  | 
Ac-[Nva]C[Phg(2-OMe)]T[Trp(7-aza)]EY[NMeS]HC[Nva]-NH2 (linker 2-10 via mXylyl(5)) [R3087] | > 25000 |  | 
[(desamino)Cys][dA]ERFC[NMeD][Tle]Y[Trp(7-aza)]EYP[Chg]K(C16) (bridge 1-6) [R3199] |  | 112 | 
Ac-[Nva]C[Phg]T[Trp(7-aza)]QY[NMeS]AC[Nva]-NH2 (linker 2-10 via mXylyl(4)) [R3098] | > 100000 |  | 
Ac-[Nva]C[Phg]T[Trp(7-aza)]E[hPhe][NMeS]AC[Nva]-NH2 (linker 2-10 via mXylyl(4)) [R3095] | > 50000 |  | 
Ac-[Chg]C[Phg]T[Trp(7-aza)]EY[NMeS]AC[Nva]-NH2 (linker 2-10 via mXylyl(4)) [R3089] | > 15000 |  | 
Ac-[Nva]C[Phg]T[Trp(7-aza)]EY[NMeS]HC[Nva]P-NH2 (linker 2-10 via mXylyl) [R3011] | 112 |  | IC50 (human C5 protein [3]): 295 nM; Ki (human C5 protein [3]): 73.2 nM; IC50 (human C5 protein [4]): 261 nM; Ki (human C5 protein [4]): 86.9 nM; IC50 (human C5 protein [5]): 278 nM; Ki (human C5 protein [5]): 80 nM
Ac-[Nva]C[Phg]TFEY[NMeS]AC[Nva]-NH2 (linker 2-10 via mXylyl(4)) [R3092] | > 50000 |  | 
Ac-KVERFD[NMeD][Tle]YWEYP[Chg]K(ivDde) (lactam 1-6) [R3197] |  | 4 | 
Ac-CVERFC[Thp][Tle]Y[Trp(7-aza)]EYP[Chg][Nva] (linker 1-6 via mXylyl(3)) [R3186] |  | 18 | 
Ac-[Nva]C[Phg]T[Trp(7-aza)]DY[NMeS]AC[Nva]-NH2 (linker 2-10 via mXylyl(4)) [R3097] | > 100000 |  | 
B1 |  | 1.5 | 
Ac-[Nva]CFT[Trp(7-aza)]EY[NMeS]AC[Nva]-NH2 (linker 2-10 via mXylyl(4)) [R3090] | > 100000 |  | 
[(desamino)Cys]VERFC[NMeD][Tle]Y[Trp(7-aza)]EYP[Chg]K(C16) (bridge 1-6) [R3198] |  | 142 | 
Ac-CVERFCD[Tle]Y[Trp(7-aza)]E[2Nal]P[Chg][Nva] (linker 1-6 via mXylyl(3)) [R3180] |  | 29 | 
